Biological target: FITC-BAD pSAHB-2
Experiment: cross-linking

Substance: BCL-XLΔC (domain or fragment)
- crosslinking conversion at 2 hours of UV exposure: 35%

Reference: PMC3048092
